# Results taken from the supplement of paper PMC12042874.
# ± gives the uncertainty stated by the source.
# Assay: amyloid nucleation score (Sup35N fusion, yeast selection) (log enrichment); library NNK2; higher = more nucleation; inactive = no reads after selection
# How it was run: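 The nucleation score equals the log enrichment of output over input reads from DiMSum, centred on the mode score of non-aggregating sequences. It was computed only for sequences with 100 or more input reads. The reads came from Illumina sequencing of plasmid inserts from psi-negative yeast expressing Sup35N fused to peptides of 20 random codons, induced with 100 μM copper sulfate for 24 hours and grown 7 days at 30°C without adenine and uracil.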
row,Substance,amyloid nucleation score
1,GLFRWYNMDNYVQI,-0.604 ± 0.76
2,VYFDNGISK,-1.6 ± 1.1
3,PSYMACSA,-0.187 ± 0.56
4,DPKVVMLVMTDMLNFG,5.71 ± 0.06
5,TLMDLNNHPTYGYLLVPTVD,-0.307 ± 0.79
6,SAGFCFNNCFVFASGDYVNR,7.493 ± 0.047
7,GFHIGDVCNYGVVFSSVARL,5.863 ± 0.05
8,KCYLVLRG,3.08 ± 0.17
9,CYVLFIRSDYGTWSMVH,4.53 ± 0.051
10,LTRQYNNRNPMSLRAIGYAF,inactive
11,RVRGSSVSISKLNKCKVVDT,3.33 ± 0.091
12,YLVGRYETTVSTKMNKMRCW,-0.175 ± 0.53
13,WPSLVLGYDMLGVI,-0.025 ± 1.1
14,GFDLNFRYA,4.43 ± 0.077
15,PCTRS,0.414 ± 0.31
16,DVVKSVPQTPL,0.851 ± 0.28
17,SEMGTVRRYCLRAYRVCVAY,0.757 ± 0.57
18,DLQIFTLLFTR,inactive
19,VNQFNVIIKD,3.33 ± 0.1
20,LYLSFKGRREFFVIYLKFHS,inactive
21,NQNCLHTTCVCSRIVSDAAV,6.483 ± 0.038
22,VLCEQHGTGKHSISAEKGHR,1.44 ± 0.41

row,Substance,amyloid nucleation score
1,FVGVYMVLRSLGDRVSYVMF,inactive
2,CIFGMDKHTYQHVVHSTLLV,0.181 ± 0.16
3,TRTQMW,0.739 ± 0.43
4,YWCFAI,-0.349 ± 0.26
5,CMDYHICHIM,3.89 ± 0.11
6,LSVDQSSSELSTDLFDFLHF,inactive
7,MFNCTQSVLPLGF,inactive
8,VGTSWLFLMV,inactive
9,SMMTVADP,-0.529 ± 0.79
10,MSVLRSG,0.526 ± 0.66
11,WSKQKVAT,0.814 ± 0.21
12,MLDMPDYCNYYL,1.27 ± 0.14
13,CHLLSRSCKFYGD,-0.898 ± 1.1
14,YVYEIDYSRFQFCARWVGWA,0.597 ± 0.48
15,ENATFLATCI,-0.217 ± 0.79
16,THFPLHV,-0.388 ± 0.37
17,FYVRSSTYFFHVYNYL,-0.387 ± 0.28
18,NFMYRSSMFMHL,4.74 ± 0.074
19,ITCLWRAWNAVLRRGHYKTS,0.615 ± 0.51
20,KFNGPKIVYFISTSMVLLVS,-0.406 ± 1.1
21,FSRSYVPIMY,0.759 ± 0.8
22,GHPSIDAQTPV,1.39 ± 0.47

row,Substance,amyloid nucleation score
1,LVQCRNVSMNTILSIGGGKS,6.17 ± 0.075
2,KMTLLFARQFGV,2.93 ± 0.12
3,SNVSVYPTMWGRVVHRPYTW,0.032 ± 0.39
4,STAFFSIIIVFFISTCRETP,-0.78 ± 0.63
5,TVMNVDWFKDYLLTNFVCSD,0.063 ± 0.36
6,PHLFFDTFV,3.98 ± 0.087
7,TNISMLNDVGEGCFGERSLV,-0.291 ± 0.54
8,NYCNDGVGCYS,4.82 ± 0.067
9,YRLRMIFSMGMNNYVARWFH,-1.5 ± 1.1
10,LFNVMFRSLMVGWMYHENGL,0.525 ± 0.44
11,FIADLSDMW,-0.916 ± 1.1
12,FIADIVYLMNFGEIWG,4.68 ± 0.1
13,GGIFFCGIWCLVYDVSVFVA,3.43 ± 0.11
14,CTKDTHNRVGHLRSHVDGSL,0.572 ± 0.8
15,KIWDCSMYTF,-1.07 ± 0.55
16,MTNMT,1.18 ± 0.61
17,VPWSLGLCSIFRSFK,2.38 ± 0.16
18,DFVDGVPL,0.415 ± 0.8
19,LIAKMAIKFKGDAQF,4.05 ± 0.09
20,LVNVM,1.39 ± 0.095
21,PASISLNFS,1.58 ± 0.22
22,SSFQEC,-1.2 ± 0.62

row,Substance,amyloid nucleation score
1,LVRSIHMVPLTWFRSNSGMF,4.13 ± 0.078
2,GTSCSMGPAWGLSCYGTFVD,-0.288 ± 0.55
3,MKPSSSLTYLE,-0.11 ± 0.5
4,MEIRTQLFVLVCSKNILGDS,-0.849 ± 1.1
5,RTCHGHYFLMM,0.683 ± 0.74
6,FMTLAGFSGAVEASGADWRR,-0.606 ± 0.63
7,GLSGMEGKLS,-0.398 ± 0.63
8,LRVMYHFNQCQFSYLRDFGR,8.38 ± 0.063
9,VTDCMSVRITLLMCSHGFKH,7.302 ± 0.063
10,NACYRFILISSMVRLSFSVW,0.389 ± 0.8
11,TYCKFVNFYESVKER,6.753 ± 0.037
12,YYFNVLFSCYEEWFMFSSTS,inactive
13,TLVRSVQLCCGISAWNMEAR,11.43 ± 0.031
14,NCLLVLHFG,6.91 ± 0.073
15,ILAVKHFRFMVGSKISGGSG,2.15 ± 0.094
16,VRSGTLFARTKWEESSCHLF,0.641 ± 0.4
17,YSVIRS,-0.171 ± 0.34
18,MFTVRWASFCVVINSSY,2.91 ± 0.069
19,RTGSALAHCFCDMQYVAATI,inactive
20,STNEWF,-1.06 ± 0.62
21,IEQFTVNLLTRRLKNSMGQN,-0.544 ± 0.79
22,TKVQERLGHF,1.46 ± 0.58
